Data: US20090053180A1, “Tandem cardiac pacemaker system” (priority 2005, published 2009)
“Also recorded” adds a separate entry of the source.

What was measured:
[1] = system: newborn rat ventricular myocytes; assay: Whole-cell voltage clamp of expressed HCN current in newborn rat ventricular myocytes; assay type: cell-based; settings: for V1/2 / s: fit of average data
Experimental: Adult rats were anesthetized with ketamine-xylazine before cardiectomy, and neonatal rats decapitated. Newborn rat ventricular myocyte cultures were prepared as previously described (Protas and Robinson, 1999). Briefly, 1-2-day-old Wistar rats were euthanized, hearts were quickly removed and ventricles were dissociated using a standard trypsinization procedure. Myocytes were harvested, preplated to reduce fibroblast proliferation, cultured initially in serum-containing medium (except when being transfected with plasmids as described below), and then incubated in serum free medium (SFM) at 37° C., 5% CO2 after 24 h. Action potential studies were conducted on 4-day-old monolayer cultures plated directly onto fibronectin-coated 9×22 mm glass coverslips. For voltage clamp experiments, 4-6 day old monolayer cultures were resuspended by brief (2-3 min) exposure to 0.25% trypsin, then replated onto fibronectin-coated coverslips and studied within 2-8 h.
Adenoviral infection of the newborn ventricular myocytes was performed on cell monolayer cultures 4 days after initial plating. Cells were exposed to a virus-containing mix (m.o.i. 20, in 250 μl of culture medium) for 2 h, rinsed twice and incubated in SFM at 37° C., 5% CO2 for 24-48 hours prior to the cells being resuspended as described above for electrophysiological study.
The whole-cell patch clamp technique was employed to record mHCN2 current from cultured myocytes. Experiments were carried out on cells superfused at 35° C. The external solution contained (mM): NaCl, 140; NaOH, 2.3; MgCl2, 1; KCl, 10; CaCl2, 1; HEPES, 5; glucose, 10; pH 7.4. MnCl2 (2 mM) and BaCl2 (4 mM) were added to block other currents. The pipette solution contained (mM): aspartic acid, 130; KOH, 146; NaCl, 10; CaCl2, 2; EGTA-KOH, 5; Mg-ATP, 2; HEPES-KOH, 10; pH 7.2.
To measure the HCN activation curve, a standard two-step protocol was employed. Hyperpolarizing steps from −25 to −135 mV for mHCN2 and from −5 or −15 to −135 mV for mE324A were applied from a holding potential of −10 mV, followed by a tail current step (to −125 or −135 mV). The duration of test steps was longer at less hyperpolarized potential for mHCN2 channels, to more closely approach steady-state activation at all voltages. The normalized plot of tail current versus test voltage was fit with a Boltzmann function and then the voltage of half maximum activation (V1/2) and slope factor(s) were defined from the fitting. Activation kinetics were determined from the same traces, while deactivation kinetics were determined from traces recorded at each test potential after achieving full activation by a prepulse to −135 mV. Time constants were then obtained by fitting the early time course of activation or deactivation current traces with a monoexponential function; the initial delay and any late slow activation or deactivation phase were ignored (Qu et al., 2001; Altomare et al., 2001). Current densities are expressed as the value of the time-dependent component of current amplitude, measured at the end of the test potential and normalized to cell membrane capacitance. Records were not corrected for liquid junction potential, which was previously determined to be 9.8 mV under these conditions (Qu et al., 2001).

Xenopus oocytes = assay: Two-microelectrode voltage clamp of expressed HCN current in Xenopus oocytes; assay type: cell-based, Xenopus laevis
[2] = system: dogs with complete AV block; assay: Tandem biological and electronic pacemakers in dogs with complete AV block (injection into left bundle branch); assay type: in vivo, dog
Experimental: Adult mongrel dogs weighing 22-25 kg were anesthetized with propofol 6 mg/kg IV and inhalational isoflurane (1.5%-2.5%). Using a steerable catheter, saline (n=5), AdmHCN2 (n=6) or AdmE324A (n=4) were injected into the left bundle branch (LBB) as described previously (Plotnikov et al., 2004). In 2 additional dogs AdmE324A was injected into the LV septal myocardium as an internal control. Complete AV block was induced via radiofrequency ablation and each site of injection was paced via catheter electrode to distinguish electrocardiographically the origin of the idioventricular rhythm during the follow up period.
An electronic pacemaker (Discovery II, Flextend lead; Guidant, Indianapolis, Ind.) was implanted and set at VVI 45 bpm. ECG, 24 hour Holter monitoring, pacemaker log record check, and overdrive pacing at 80 bpm were performed daily for 14 days. To evaluate beta-adrenergic responsiveness, on day 14, epinephrine (1.0, 1.5 and 2.0 μg/kg/min for up to 10 min each) was infused to an endpoint of a 50% increase in idioventricular rate or ventricular arrhythmia (single ventricular premature beats having a morphology other than that of the dominant idioventricular rhythm or ventricular tachycardia), whichever occurred first. If none of the above responses was observed within 10 min after onset of the maximal dose of 2 μg/kg/min, the infusion was terminated.
Data are presented as means±SEM. […] One-way ANOVA was used to evaluate the effect of an implanted construct on electrophysiological parameters. Subsequent analysis was performed using Bonferroni's test where equal variances were assumed and the Games-Howell test where variances were unequal. A two-way contingency table analysis was conducted to evaluate whether epinephrine had different effects across three groups. Data were analyzed using SPSS for Windows software (SPSS, Inc.). P<0.05 was considered to be significant.
Complete AV block was induced via radiofrequency ablation, and electronic pacemakers were implanted into the right ventricular apical endocardium and set a VV1 45 bpm. ECG and 24-h monitoring were performed daily for 14 days. Beta-adrenergic responsiveness was also evaluated as described above.
Escape time was evaluated daily by performing three 30-s periods of ventricular overdrive pacing at 80 bpm followed by an abrupt cessation of pacing. The average time between the final electronically paced beat and the first intrinsic beat was then determined. […] There was a different result with regard to basal heart rates throughout the 14-day period, however.

[3] = system: cell-free patches from Xenopus oocytes; settings: cited from earlier work
[4] = 10 μM cAMP in the pipette solution

B1: mE324A: mHCN2 channel with E324A point mutation, expressed from cRNA or adenoviral construct AdmE324A (protein, UniProt O88703 1-863, looked up, variant E324A)
Potassium/sodium …: MDARGGGGRPGDSPGTTPAPGPPPPPPPPAPPQPQPPPAPPPNPTTPSHPESADEPGPRARLCSRDSACTPGAAKGGANGECGRGEPQCSPEGPARGPKVSFSCRGAASGPSAAEEAGSEEAGPAGEPRGSQASFLQRQFGALLQPGVNKFSLRMFGSQKAVEREQERVKSAGAWIIHPYSDFRFYWDFTMLLFMVGNLIIIPVGITFFKDETTAPWIVFNVVSDTFFLMDLVLNFRTGIVIEDNTEIILDPEKIKKKYLRTWFVVDFVSSIPVDYIFLIVEKGIDSEVYKTARALRIVRFTKILSLLRLLRLSRLIRYIHQWAEIFHMTYDLASAVMRICNLISMMLLLCHWDGCLQFLVPMLQDFPSDCWVSINNMVNHSWSELYSFALFKAMSHMLCIGYGRQAPESMTDIWLTMLSMIVGATCYAMFIGHATALIQSLDSSRRQYQEKYKQVEQYMSFHKLPADFRQKIHDYYEHRYQGKMFDEDSILGELNGPLREEIVNFNCRKLVASMPLFANADPNFVTAMLTKLKFEVFQPGDYIIREGTIGKKMYFIQHGVVSVLTKGNKEMKLSDGSYFGEICLLTRGRRTASVRADTYCRLYSLSVDNFNEVLEEYPMMRRAFETVAIDRLDRIGKKNSILLHKVQHDLSSGVFNNQENAIIQEIVKYDREMVQQAELGQRVGLFPPPPPPQVTSAIATLQQAVAMSFCPQVARPLVGPLALGSPRLVRRAPPGPLPPAASPGPPAASPPAAPSSPRAPRTSPYGVPGSPATRVGPALPARRLSRASRPLSASQPSLPHGVPAPSPAASARPASSSTPRLGPAPTARTAAPSPDRRDSASPGAASGLDPLDSARSRLSSNL
[1]
  activation kinetics compared with mHCN2: faster
  activation threshold compared with mHCN2: less negative
[1]; [4]
  shift of V1/2 by cAMP: 5.6 mV
  V1/2: −40.7 mV
  s: 8.7 mV
[1]; 6 matched cell cultures
  percentage of myocytes expressing current: 36.6%
[1]; at −135 mV
  current density, times smaller than that of mHCN2: about 2.5 times
[1]; absence of cAMP
  V1/2: −46.3 mV
  s: 9.1 mV
[1]; mean of individual Boltzmann fits
  slope factor s: 9.6±0.4 mV
[1]; mean of individual Boltzmann fits, adenoviral infection
  V1/2 (voltage of half maximum activation): −46.9±1.2 mV
[1]; measured at −135 mV
  current density: 21.0±3.5 pA/pF
Xenopus oocytes; 5 mM Cs+
  effect of Cs+ on inward current: blocked; also recorded: large inhibition
Xenopus oocytes; fully activated current/voltage relation
  reversal potential: ~−40 mV
[2]; 14 days, electronic pacemaker set at VVI 45 bpm
  beats triggered by the electronic pacemaker, of all beats: 36±7%
[2]; day 14
  arrhythmias during epinephrine infusion: no arrhythmias were seen
[2]; days 1-7 and 8-14
  mean basal heart rate compared with saline group: significantly faster
[2]; epinephrine 1 μg/kg/min, day 14
  animals that achieved a 50% increase in rate at the lowest epinephrine dose: 100%
[2]; lowest dose of epinephrine
  increase in heart rate: > 50%
[2]; representative animal, day 14
  control rate prior to epinephrine: 52 bpm
[2]; representative animal, epinephrine 1 μg/kg/min
  rate with epinephrine: 81 bpm

B2: HCN1: HCN1 isoform of hyperpolarization-activated, cyclic nucleotide-gated ion channel (protein, UniProt O60741 1-890, looked up)
Potassium/sodium …: MEGGGKPNSSSNSRDDGNSVFPAKASATGAGPAAAEKRLGTPPGGGGAGAKEHGNSVCFKVDGGGGGGGGGGGGEEPAGGFEDAEGPRRQYGFMQRQFTSMLQPGVNKFSLRMFGSQKAVEKEQERVKTAGFWIIHPYSDFRFYWDLIMLIMMVGNLVIIPVGITFFTEQTTTPWIIFNVASDTVFLLDLIMNFRTGTVNEDSSEIILDPKVIKMNYLKSWFVVDFISSIPVDYIFLIVEKGMDSEVYKTARALRIVRFTKILSLLRLLRLSRLIRYIHQWEEIFHMTYDLASAVVRIFNLIGMMLLLCHWDGCLQFLVPLLQDFPPDCWVSLNEMVNDSWGKQYSYALFKAMSHMLCIGYGAQAPVSMSDLWITMLSMIVGATCYAMFVGHATALIQSLDSSRRQYQEKYKQVEQYMSFHKLPADMRQKIHDYYEHRYQGKIFDEENILNELNDPLREEIVNFNCRKLVATMPLFANADPNFVTAMLSKLRFEVFQPGDYIIREGAVGKKMYFIQHGVAGVITKSSKEMKLTDGSYFGEICLLTKGRRTASVRADTYCRLYSLSVDNFNEVLEEYPMMRRAFETVAIDRLDRIGKKNSILLQKFQKDLNTGVFNNQENEILKQIVKHDREMVQAIAPINYPQMTTLNSTSSTTTPTSRMRTQSPPVYTATSLSHSNLHSPSPSTQTPQPSAILSPCSYTTAVCSPPVQSPLAARTFHYASPTASQLSLMQQQPQQQVQQSQPPQTQPQQPSPQPQTPGSSTPKNEVHKSTQALHNTNLTREVRPLSASQPSLPHEVSTLISRPHPTVGESLASIPQPVTAVPGTGLQAGGRSTVPQRVTLFRQMSSGAIPPNRGVPPAPPPPAAALPRESSSVLNTDPDAEKPRFASNL
[3]
  shift of activation curve to more positive potentials by cAMP: 4 mV
